# T1: RVFV nucleoprotein N (Rift Valley fever virus, UniProt D3K5I7 1-245)
# T1 sequence: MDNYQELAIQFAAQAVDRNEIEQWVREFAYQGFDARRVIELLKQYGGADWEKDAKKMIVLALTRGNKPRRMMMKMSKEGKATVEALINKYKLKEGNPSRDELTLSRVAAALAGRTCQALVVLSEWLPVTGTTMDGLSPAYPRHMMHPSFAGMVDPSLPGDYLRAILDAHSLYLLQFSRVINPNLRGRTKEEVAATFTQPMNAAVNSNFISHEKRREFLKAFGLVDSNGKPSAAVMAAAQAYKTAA
# T2: Toscana virus nucleoprotein N (Toscana virus, UniProt P21701 1-253)
# T2 sequence: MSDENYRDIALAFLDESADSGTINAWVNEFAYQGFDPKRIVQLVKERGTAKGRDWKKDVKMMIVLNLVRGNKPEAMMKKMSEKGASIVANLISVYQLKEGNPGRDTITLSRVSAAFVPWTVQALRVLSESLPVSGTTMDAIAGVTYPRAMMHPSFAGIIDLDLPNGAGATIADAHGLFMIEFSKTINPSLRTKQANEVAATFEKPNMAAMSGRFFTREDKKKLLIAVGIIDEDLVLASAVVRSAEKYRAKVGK
# B1: Toscana virus nucleoprotein N (natural protein)
# chain: T2 sequence
# notes: Hexameric ring in both crystal forms
# Key:
# [1] = target: the molecule itself; experiment: crystal structure; apo (RNA-free) N; 6.5% PEG 3350, 0.1-M sodium malonate, pH 4.5-5.2; space group P6, 12 molecules in the asymmetric unit, 3.3 Å
# [2] = target: the molecule itself; experiment: crystal structure; N reconstituted with 9-mer RNA oligo1 (UGUGUUUCU); 11% PEG 3350, 0.1-M sodium malonate, pH 4.5-5.2; space group P1, 24 N and 12 RNA in the asymmetric unit, 2.6 Å
# RVFV nucleoprotein N = target: T1, RVFV nucleoprotein N; experiment: ITC; n=0.70; main text gives 420 nM; ITC: 20 mM Tris pH 7.5, 150 mM NaCl, 8 C; […]; conditions: protein: recombinant; single strand
# [3] = target: T2, Toscana virus nucleoprotein N; experiment: ITC; n=0.49; ITC: 20 mM Tris pH 7.5, 150 mM NaCl, 8 C; 400 uM RNA titrated into 30 uM apo N; conditions: protein: recombinant; tags: N-terminal His6; chain copies: 6; single strand
# [4] = target: T2, Toscana virus nucleoprotein N; experiment: ITC; n=0.43; ITC: 20 mM Tris pH 7.5, 150 mM NaCl, 8 C; 400 uM RNA titrated into 30 uM apo N; conditions: protein: recombinant; tags: N-terminal His6; chain copies: 6; single strand
# [5] = target: T2, Toscana virus nucleoprotein N; experiment: ITC; n=0.40; ITC: 20 mM Tris pH 7.5, 150 mM NaCl, 8 C; 400 uM RNA titrated into 30 uM apo N; conditions: protein: recombinant; tags: N-terminal His6; chain copies: 6; single strand
# [6] = target: T2, Toscana virus nucleoprotein N; experiment: ITC; n=0.51; ITC: 20 mM Tris pH 7.5, 150 mM NaCl, 8 C; 400 uM RNA titrated into 30 uM apo N; conditions: protein: recombinant; tags: N-terminal His6; chain copies: 6; single strand
# [7] = target: T2, Toscana virus nucleoprotein N; experiment: ITC; n=0.52; ITC: 20 mM Tris pH 7.5, 150 mM NaCl, 8 C; 400 uM RNA titrated into 30 uM apo N; conditions: protein: recombinant; tags: N-terminal His6; chain copies: 6; single strand
# [8] = target: T2, Toscana virus nucleoprotein N; experiment: ITC; n=0.50; ITC: 20 mM Tris pH 7.5, 150 mM NaCl, 8 C; 400 uM RNA titrated into 30 uM apo N; conditions: protein: recombinant; tags: N-terminal His6; chain copies: 6; single strand
binder,measurement,setting,value
B1,stoichiometry N,[1],6
same,stoichiometry N,[2],6
UGUGUUUCU (ssRNA) [oligo1 (reverted 3' consensus 9-mer)],Kd,RVFV nucleoprotein N,400 ± 100 nM
same,Kd,[3],260 ± 20 nM
UCUUUGUGU (ssRNA) [oligo2 (3' genomic consensus)],Kd,[4],560 ± 70 nM
UAUGUUUCU (ssRNA) [oligo4 (G2A mutant of oligo1)],Kd,[3],290 ± 40 nM
UUUUUUUUU (ssRNA) [oligo5 (polyU 9-mer)],Kd,[5],360 ± 40 nM
UGUGUUUC (ssRNA) [oligo6 (8-mer from oligo1)],Kd,[6],710 ± 30 nM
UGUGUUU (ssRNA) [oligo7 (7-mer from oligo1)],Kd,[7],2700 ± 200 nM
UGUGUU (ssRNA) [oligo8 (6-mer from oligo1)],Kd,[8],8000 ± 900 nM
